From the nanobody polyreactivity screen of Harvey et al. (2022)

Assay: yeast display, Sf9 membrane polyspecificity reagent, FACS + sequencing; frameworks hold sequencing errors
Summary of the method: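 After 36–48 hours of galactose induction, yeast (Saccharomyces cerevisiae BJ5465) displaying a synthetic nanobody library were stained at 4 °C for 1 hour with 10% biotinylated, detergent-solubilized Sf9 membrane reagent. Streptavidin microbeads enriched the stained cells before FACS sorting into low and high (top ~1%) gates on anti-HA and streptavidin fluorescence. Each clone's polyreactivity label reflects its gate of origin.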

| Sequence | polyreactivity (PSR sort gate) |
| --- | --- |
| QVQLVESGGGLVQAGGSLRLSCAASGSIFRSNDMGWYRQAPGKERELVARITSSVGSTYYADSVKGRFTISRDNAKNTVYLQMNSLKAEDTAVYYGAKRYYHYPYGYRDYDYWGQGTQVTVSS | low polyreactivity |
| QVQLVESGGGLVQAGGSLRLSCAASGSIFRSNTMGWYRQAPGKERELVAGISYSGGSTYADSVKGRFTISRDNAKNTVYLQMNSLKTEDTAVYYCARRVYSYVVLYFSYYYWGQGTQVTVSS | low polyreactivity |
| QVQLVESGGGLVQAGGSLRLSCAASGSIFRSYAKGWYRQAPGKERELVAAISSSGGRKYYADSVKGRFTISRDNAKNTVYLQMNSLKPEDTAVYYCAAYGAGGYKYDYWGQGTQVTVSS | low polyreactivity |
| QVQLVESGGGLVQAGGSLRLSCAASGSIFRSYALGWYRQAPGKERELVAAITWSGGRTYYADSVKGRFTISRDNAKNTVYLQMNSLKPEDTAVYYCNADVWWDTWFLDGYDYWGQGTQVTVSS | high polyreactivity |
| QVQLVESGGGLVQAGGSLRLSCAASGSIFRSYAMGWYRPAPGKERELVAAISSGGRTKYADSVKGRFTISRDNAKNTVYLQMNSLKPEDTAVYYCAARAYYARFLMGYWGQGTQVTVSS | high polyreactivity |
| QVQLVESGGGLVQAGGSLRLSCAASGSIFRSYAMGWYRQAPGKERELVAAISGRGSNTYYADSVKGRFTISRDNAKNTVYLQMNSLKPEDTAVYYCATRQWVFSHGYWGQGTQVTVSS | high polyreactivity |
| QVQLVESGGGLVQAGGSLRLSCAASGSIFRSYAMGWYRQAPGKERELVAAISRRGGSTYYADSVKGRFTISRDNAKNTVYLQMNSLKPADTAVYYCAADRTGPYDYWGQGTQVTVSS | high polyreactivity |
| QVQLVESGGGLVQAGGSLRLSCAASGSIFRTNAMGWYREAPGKERELVAAITGRGGSTYYADSVKGRFTISRDYAKNTVYLQMNSLKPEDTAVYYCAAAYGTWKFLATTEDYWGQGTQVTVSS | high polyreactivity |
| QVQLVESGGGLVQAGGSLRLSCAASGSIFRTNAMGWYRQAPGKERELVAAISRRGSNTYYADSVKGRFTISRDNAKNTVYLLMNSMKPEDTAVYYCAADVSGSKYDYWGQGTQVTVSS | high polyreactivity |
| QVQLVESGGGLVQAGGSLRLSCAASGSIFRTYTMGWYRQAPGKERELVAAITRSGGRTFYADSVKGRFTISRDTAKNTVYLQMHSLKPEDTAVYYCAAKRTGDYDWGQGTQVTVSS | high polyreactivity |
| QVQLVESGGGLVQAGGSLRLSCAASGSIFRVNTLGWYRQAPGKERELVATISSGARTNYADSVKGRFTISRDNAKNTVDLQLNSLKPEDTAVYYCAADRSWGYWGRSRYDYWGQGTQVTVSS | high polyreactivity |
| QVQLVESGGGLVQAGGSLRLSCAASGSIFRVNTMGWYRQAPGKERELVAGITSRGGSTYYADSVKGRFTISRDNAKNTVYLQMNSLKPEDTAFYYCANRAYGTALYRGYGYWGQGTQVPVSS | low polyreactivity |
| QVQLVESGGGLVQAGGSLRLSCAASGSIFRVYALGWSRQAPGKERELVAAISSSGGSTYYADSVKGRFTISRDNAKNTVYLQMNSLKPEDTAVYYCAAEYDGPYTWVDYYYHYGYWGQGTQVTVSS | low polyreactivity |
| QVQLVESGGGLVQAGGSLRLSCAASGSIFRVYAMGRYRQAPGKEREFVAAISYSTGSTYADSVKGRFTISRDNAKNTVYLQMNSLKPEDTAVYYCNARLRYGSRDEYDYWGQGTQVTVSS | low polyreactivity |
| QVQLVESGGGLVQAGGSLRLSCAASGSIFRVYAMGWYRQAPGKEREFVAAITRRGTRTYYADSVKGRFTISRDNAKNTDYLQMNSLKPEDTAVYYCAAYFTDGLYEYWGQGTQVTVSS | low polyreactivity |
| QVQLVESGGGLVQAGGSLRLSCAASGSIFRVYAMGWYRQAPGKEREFVAAITRRGTRTYYADSVKGRFTISRDNAKNTVYLQMNSLKPEDTAVYYCAAYFTEGLYEYWGQGTQVTLSS | low polyreactivity |
| QVQLVESGGGLVQAGGSLRLSCAASGSIFRVYAMGWYRQAPGKERELVAVITWTGGITYYADSVKGRFTISRDNAKNTVYLQMNSLKPEDTAVYYCNADLLTFAIKAPTGFYYWGQGTQVTVSS | high polyreactivity |
| QVQLVESGGGLVQAGGSLRLSCAASGSIFRVYGMGWHRQAPGKERELVAAITWSGGSTYYADSVKGRFTISRDNAKNTVYLQMNSLKPEDTAVSYCAARARPRYYRPPYDYWGQGTQVTVSS | high polyreactivity |
| QVQLVESGGGLVQAGGSLRLSCAASGSIFRYNAMGWYRQAPGKERELVAAISGRGTSTYYADSVKGRFTISRDNAKNTVYLQMNSLKPEDTAVYYCAAVYFRTFLVEYYYWGQGTQVTVSS | high polyreactivity |
| QVQLVESGGGLVQAGGSLRLSCAASGSIFRYNAMGWYRQAPGKERELVAAITSGDSTYYADSVKGRFTISRDNAKNTVYLQMNSLKPEDTAVYYCAADLRYIYWSYYYWGQGTQVTVSS | low polyreactivity |
| QVQLVESGGGLVQAGGSLRLSCAASGSIFRYNTMGWYRPAPGKERELVATITRRGGSTYYADSVKGRFTISRDNAKNTVYLQMNSLKPEDTAVYYCIADNFGGPYNYWGQGTQVTVSS | low polyreactivity |
| QVQLVESGGGLVQAGGSLRLSCAASGSIFRYYAMGAYRQAPGKARELVAAISIRGGRTYYADSVKGRFTISRDNAKNTVYLQMNSLKPEDTAVYYCATAFGFTAKYYYWGQGTQVTVSS | high polyreactivity |

| Sequence | polyreactivity (PSR sort gate) |
| --- | --- |
| QVQLVESGGGLVQAGGSLRLSCAASGSIFRYYAMGLYRQAPGKERVLVAAFSGSGGITLYADSVKVRFSISRDNAKNTVYLQMNCLKPEDTAVYFCATRPGTRPAYDYWGQGTQVTVSS | high polyreactivity |
| QVQLVESGGGLVQAGGSLRLSCAASGSIFRYYAMGWYRPAPGKERELVAAISSGGNTKYADSVKGRFTISRDNAKNTVYLQMNSLKPADTAVYYCNAAGKACGDYDYWGQGTQVTVSS | low polyreactivity |
| QVQLVESGGGLVQAGGSLRLSCAASGSIFRYYAMGWYRQAPGKERELVAAISSGDSTNYADSVKGRFTISRDNAKNTVYLQMNSLKPEDTAVYYCAAGVVRGPGYYRKYYYWGQGTQVTVSS | high polyreactivity |
| QVQLVESGGGLVQAGGSLRLSCAASGSIFRYYAMGWYRQAPGKERELVAAITRRGGSTYYADSVKGRFTISRDNAKNTVYLQMNSLKPEDTAVYYCAASHGYQYEYWGQGTQVTVSS | high polyreactivity |
| QVQLVESGGGLVQAGGSLRLSCAASGSIFRYYAMGWYRQAPGKERELVAAITSGGSTSYADSVKGRFTISRDNAKNTVYLQMNSLKPEDTAVYYCAKRSRHNKYYYWGQGTQVTVSS | high polyreactivity |
| QVQLVESGGGLVQAGGSLRLSCAASGSIFRYYDMGWYRQAPGKERELVAAISDSTGTTYYADSVKGRFTISRDNAKNTVYLQMNSLKPEDTAVYYCTAGYDPRYDYWGQGTQVTVSS | high polyreactivity |
| QVQLVESGGGLVQAGGSLRLSCAASGSIFRYYVMGWYRHAPGKERELVAAISGGSTYYADSVKGRFTISRDNAKNTVYLQMNSLKPEDTAVYYCAARGKRRSGGENYAYGYWGQGTQVTVSS | high polyreactivity |
| QVQLVESGGGLVQAGGSLRLSCAASGSIFRYYVMGWYRQAPGKERELVAAISWSGGTTYYADSVKGRFTISRDNAKNTVYLQMNSLKPEDTAVYYCAAKGPLGYYHATDYHDYWGQGTQVTVSS | high polyreactivity |
| QVQLVESGGGLVQAGGSLRLSCAASGSIFSAKTMGWYRQAPGKERELVAAISSSGGRTYYADSVKGRFTISRDHAKNTVYLQMNSLKPEDTAVYYSNARSRYHVTPYSGVTGYDYWGQGTQVTVSS | high polyreactivity |
| QVQLVESGGGLVQAGGSLRLSCAASGSIFSANAMGWYRQAPGKERELVASITGDGSTNYADSVNGRFTISRDNAKNTVYLQMNSLKPEDTAVYYCAVDRGRRGMDYWGQGTQVTVSS | low polyreactivity |
| QVQLVESGGGLVQAGGSLRLSCAASGSIFSAYSMGSYRQAHGKEREFVAAISKSGSSTYYADSVKGRFTISRDNAKNTVYLQMNSLKPEDTAVYYCAAESSSYYGYYIYYYWGQGTQVTVSS | high polyreactivity |
| QVQLVESGGGLVQAGGSLRLSCAASGSIFSDYAKGWYRQAPVKERELVAVITSGGRTNYADSLKGRFTISRDNAKNTVYLQMNSLKPEDTAVFYWNAYVHSRRVEFNYWGQGTQVTVSS | high polyreactivity |
| QVQLVESGGGLVQAGGSLRLSCAASGSIFSDYAMGWYRQAPGTERELVAAITEGGDSTYYADSVKGRFTISRDNAKNTVYLQMNSLKPEDTAVYSCAAEVYQLFTSPFDYWGQGTQVTVSS | low polyreactivity |
| QVQLVESGGGLVQAGGSLRLSCAASGSIFSENAMGWYRQAPGKERELVADITDGGGSTYYADSVKGRFTISRDNAKNTVYLQMNSLKPEDTAVYYCNAQIFFFAPWYYEYDYWGQGTQVTVSS | low polyreactivity |
| QVQLVESGGGLVQAGGSLRLSCAASGSIFSENTMGWYRQAPGKKRELVADITSGGSTNYADSVKGRFTISRDNAKNTVYLQMNSLKPEDTAVYYCNADWEAYKYNYWGQGTQVTVSS | low polyreactivity |
| QVQLVESGGGLVQAGGSLRLSCAASGSIFSFNAMGWYRPAPGKERELVAAISKSGGRTYYADSVKGRFTISRDNAKNTVYLQMNSLKPEDTAVYYCNVVSYYLYTPGDYWGQGTQVTVSS | high polyreactivity |
| QVQLVESGGGLVQAGGSLRLSCAASGSIFSFNAMGWYRQAPGKERELVAVITRNGGSTYYADSVKGRFTISRDNAKNTVYLQKNSLKPEDTAVYYCAKRLYRHIMGYWGQGTQVTVSS | high polyreactivity |
| QVQLVESGGGLVQAGGSLRLSCAASGSIFSFYAMGWSRQAPGKERELVASISYSGGTTFYADSVKGRFTISRDNAKNTVYLQMNSLKTEDTAVYYSAATCEPPQRGYVKDEFDYWGQVTQVTVSS | low polyreactivity |
| QVQLVESGGGLVQAGGSLRLSCAASGSIFSFYAMGWYRQAPGKERELVASITRRGGSTSYADSVKGRFTISRDNAKNTVYLQMNSLKPEDTAVYYCASESKFISVLRVGYYYVKFDYWGQGTQVTVSS | high polyreactivity |
| QVQLVESGGGLVQAGGSLRLSCAASGSIFSFYTMGWYRQAPGKERELVASISRSGGTTYYADSVKGRFTISRDNAKNTVYLQMNSLKPEDTAVYYCAVRQAKYGGAYYGYYYWGQGTQVTVSS | high polyreactivity |
| QVQLVESGGGLVQAGGSLRLSCAASGSIFSGYDMGWYRQAPGNERELVAVISWSTTSTYYADSVKGRFTISRDNAKNTVYLQMNSLKPEDTAVYYCNAEAYQYWEFDYWGQGSQVTVSS | low polyreactivity |
